B1: Oxidative stress-induced growth inhibitor 1 (Homo sapiens), Q9UJX0 (parent)
chain: MSSSRKDHLGASSSEPLPVIIVGNGPSGICLSYLLSGYTPYTKPDAIHPHPLLQRKLTEAPGVSILDQDLDYLSEGLEGRSQSPVALLFDALLRPDTDFGGNMKSVLTWKHRKEHAIPHVVLGRNLPGGAWHSIEGSMVILSQGQWMGLPDLEVKDWMQKKRRGLRNSRATAGDIAHYYRDYVVKKGLGHNFVSGAVVTAVEWGTPDPSSCGAQDSSPLFQVSGFLTRNQAQQPFSLWARNVVLATGTFDSPARLGIPGEALPFIHHELSALEAATRVGAVTPASDPVLIIGAGLSAADAVLYARHYNIPVIHAFRRAVDDPGLVFNQLPKMLYPEYHKVHQMMREQSILSPSPYEGYRSLPRHQLLCFKEDCQAVFQDLEGVEKVFGVSLVLVLIGSHPDLSFLPGAGADFAVDPDQPLSAKRNPIDVDPFTYQSTRQEGLYAMGPLAGDNFVRFVQGGALAVASSLLRKETRKPP
partner: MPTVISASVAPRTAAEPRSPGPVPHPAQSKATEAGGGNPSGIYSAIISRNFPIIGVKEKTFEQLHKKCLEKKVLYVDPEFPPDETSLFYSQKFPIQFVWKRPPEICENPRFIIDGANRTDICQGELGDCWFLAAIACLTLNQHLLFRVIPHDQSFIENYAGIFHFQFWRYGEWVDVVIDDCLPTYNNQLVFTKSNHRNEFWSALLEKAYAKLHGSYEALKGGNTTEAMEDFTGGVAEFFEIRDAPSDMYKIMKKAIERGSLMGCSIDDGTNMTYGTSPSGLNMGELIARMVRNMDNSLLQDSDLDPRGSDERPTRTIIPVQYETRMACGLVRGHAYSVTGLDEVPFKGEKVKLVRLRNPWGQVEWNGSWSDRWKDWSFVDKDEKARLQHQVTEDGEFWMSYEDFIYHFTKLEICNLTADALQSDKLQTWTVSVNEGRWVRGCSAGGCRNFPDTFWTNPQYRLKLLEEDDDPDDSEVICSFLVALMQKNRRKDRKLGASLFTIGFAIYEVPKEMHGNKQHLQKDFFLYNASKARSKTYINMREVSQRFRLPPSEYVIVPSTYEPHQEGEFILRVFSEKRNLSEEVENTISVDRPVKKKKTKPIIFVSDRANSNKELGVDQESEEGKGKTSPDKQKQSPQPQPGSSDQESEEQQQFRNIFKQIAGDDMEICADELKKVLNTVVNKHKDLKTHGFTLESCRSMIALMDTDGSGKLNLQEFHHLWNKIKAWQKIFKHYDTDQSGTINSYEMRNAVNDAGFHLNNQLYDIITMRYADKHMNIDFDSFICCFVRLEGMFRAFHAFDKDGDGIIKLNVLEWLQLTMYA
B2: 2'-5'-oligoadenylate synthase 1 (Homo sapiens), P00973 (parent)
chain: MMDLRNTPAKSLDKFIEDYLLPDTCFRMQINHAIDIICGFLKERCFRGSSYPVCVSKVVKGGSSGKGTTLRGRSDADLVVFLSPLTTFQDQLNRRGEFIQEIRRQLEACQRERAFSVKFEVQAPRWGNPRALSFVLSSLQLGEGVEFDVLPAFDALGQLTGGYKPNPQIYVKLIEECTDLQKEGEFSTCFTELQRDFLKQRPTKLKSLIRLVKHWYQNCKKKLGKLPPQYALELLTVYAWERGSMKTHFNTAQGFRTVLELVINYQQLCIYWTKYYDFKNPIIEKYLRRQLTKPRPVILDPADPTGNLGGGDPKGWRQLAQEAEAWLNYPCFKNWDGSPVSSWILLAESNSADDETDDPRRYQKYGYIGTHEYPHFSHRPSTLQAASTPQAEEDWTCTIL
B3: Phagosome assembly factor 1 (Homo sapiens), Q9BSU1 (parent)
chain: MLDLEVVPERSLGNEQWEFTLGMPLAQAVAILQKHCRIIKNVQVLYSEQSPLSHDLILNLTQDGIKLMFDAFNQRLKVIEVCDLTKVKLKYCGVHFNSQAIAPTIEQIDQSFGATHPGVYNSAEQLFHLNFRGLSFSFQLDSWTEAPKYEPNFAHGLASLQIPHGATVKRMYIYSGNSLQDTKAPMMPLSCFLGNVYAESVDVLRDGTGPAGLRLRLLAAGCGPGLLADAKMRVFERSVYFGDSCQDVLSMLGSPHKVFYKSEDKMKIHSPSPHKQVPSKCNDYFFNYFTLGVDILFDANTHKVKKFVLHTNYPGHYNFNIYHRCEFKIPLAIKKENADGQTETCTTYSKWDNIQELLGHPVEKPVVLHRSSSPNNTNPFGSTFCFGLQRMIFEVMQNNHIASVTLYGPPRPGSHLRTAELP
B4: E3 ubiquitin-protein ligase RNF185 (Homo sapiens), Q96GF1 (parent)
chain: MASKGPSASASPENSSAGGPSGSSNGAGESGGQDSTFECNICLDTAKDAVISLCGHLFCWPCLHQWLETRPNRQVCPVCKAGISRDKVIPLYGRGSTGQQDPREKTPPRPQGQRPEPENRGGFQGFGFGDGGFQMSFGIGAFPFGIFATAFNINDGRPPPAVPGTPQYVDEQFLSRLFLFVALVIMFWLLIA
B5: Amphiphysin (Homo sapiens), P49418 (parent)
chain: MADIKTGIFAKNVQKRLNRAQEKVLQKLGKADETKDEQFEEYVQNFKRQEAEGTRLQRELRGYLAAIKGMQEASMKLTESLHEVYEPDWYGREDVKMVGEKCDVLWEDFHQKLVDGSLLTLDTYLGQFPDIKNRIAKRSRKLVDYDSARHHLEALQSSKRKDESRISKAEEEFQKAQKVFEEFNVDLQEELPSLWSRRVGFYVNTFKNVSSLEAKFHKEIAVLCHKLYEVMTKLGDQHADKAFTIQGAPSDSGPLRIAKTPSPPEEPSPLPSPTASPNHTLAPASPAPARPRSPSQTRKGPPVPPLPKVTPTKELQQENIISFFEDNFVPEISVTTPSQNEVPEVKKEETLLDLDFDPFKPEVTPAGSAGVTHSPMSQTLPWDLWTTSTDLVQPASGGSFNGFTQPQDTSLFTMQTDQSMICNLAESEQAPPTEPKAEEPLAAVTPAVGLDLGMDTRAEEPVEEAVIIPGADADAAVGTLVSAAEGAPGEEAEAEKATVPAGEGVSLEEAKIGTETTEGAESAQPEAEELEATVPQEKVIPSVVIEPASNHEEEGENEITIGAEPKETTEDAAPPGPTSETPELATEQKPIQDPQPTPSAPAMGAADQLASAREASQELPPGFLYKVETLHDFEAANSDELTLQRGDVVLVVPSDSEADQDAGWLVGVKESDWLQYRDLATYKGLFPENFTRRLD
partner: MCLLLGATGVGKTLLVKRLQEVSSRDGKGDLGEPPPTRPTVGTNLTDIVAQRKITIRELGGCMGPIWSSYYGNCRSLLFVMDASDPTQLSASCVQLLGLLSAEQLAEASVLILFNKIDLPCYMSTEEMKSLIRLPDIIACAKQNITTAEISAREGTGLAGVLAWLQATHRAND
B6: Medium-chain acyl-CoA ligase ACSF2, mitochondrial (Homo sapiens), Q96CM8 (parent)
chain: MAVYVGMLRLGRLCAGSSGVLGARAALSRSWQEARLQGVRFLSSREVDRMVSTPIGGLSYVQGCTKKHLNSKTVGQCLETTAQRVPEREALVVLHEDVRLTFAQLKEEVDKAASGLLSIGLCKGDRLGMWGPNSYAWVLMQLATAQAGIILVSVNPAYQAMELEYVLKKVGCKALVFPKQFKTQQYYNVLKQICPEVENAQPGALKSQRLPDLTTVISVDAPLPGTLLLDEVVAAGSTRQHLDQLQYNQQFLSCHDPINIQFTSGTTGSPKGATLSHYNIVNNSNILGERLKLHEKTPEQLRMILPNPLYHCLGSVAGTMMCLMYGATLILASPIFNGKKALEAISRERGTFLYGTPTMFVDILNQPDFSSYDISTMCGGVIAGSPAPPELIRAIINKINMKDLVVAYGTTENSPVTFAHFPEDTVEQKAESVGRIMPHTEARIMNMEAGTLAKLNTPGELCIRGYCVMLGYWGEPQKTEEAVDQDKWYWTGDVATMNEQGFCKIVGRSKDMIIRGGENIYPAELEDFFHTHPKVQEVQVVGVKDDRMGEEICACIRLKDGEETTVEEIKAFCKGKISHFKIPKYIVFVTNYPLTISGKIQKFKLREQMERHLNL
partner: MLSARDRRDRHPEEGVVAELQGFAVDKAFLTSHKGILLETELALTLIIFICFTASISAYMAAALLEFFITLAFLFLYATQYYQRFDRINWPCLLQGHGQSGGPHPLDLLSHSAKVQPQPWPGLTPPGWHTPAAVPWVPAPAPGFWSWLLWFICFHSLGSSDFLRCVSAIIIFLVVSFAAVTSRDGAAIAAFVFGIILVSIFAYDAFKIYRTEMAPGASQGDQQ

Variants of: B1
Details: with can3_human CAPN3, P20807

| effect of a mutation on the interaction | Variant |
| --- | --- |
| with no effect | MSSSRKDHLGASSSEPLPVIIVGNGPSGICLSYLLSGYTPYTKPDAIHPHPLLQRKLTEAPGVSILDQDLDYLSEGLEGRSQSPVALLFDALLRPDTDFGGNMKSVLTWKHRKEHAIPHVVLGRNLPGGAWHSIEGSMVILSQGQWMGLPDLEVKDWMQKKRRGLRNSRATAGDIAHYYRDYVVKKGLGHNFVSGAVVTAVEWGTPDPSSCGAQDSSPLFQVSGFLTRNQAQQPFSLWARNVVLATGTFDSPARLGIPGEALPFIHHELSALEAATRVGAVTPASDPVLIIGAGLSAADAVLYARHYNIPVIHAFRRAVNDPGLVFNQLPKMLYPEYHKVHQMMREQSILSPSPYEGYRSLPRHQLLCFKEDCQAVFQDLEGVEKVFGVSLVLVLIGSHPDLSFLPGAGADFAVDPDQPLSAKRNPIDVDPFTYQSTRQEGLYAMGPLAGDNFVRFVQGGALAVASSLLRKETRKPP [D320N] |
| with no effect | MSSSRKDHLGASSSEPLPVIIVGNGPSGICLSYLLSGYTPYTKPDAIHPHPLLQRKLTEAPGVSILDQDLDYLSEGLEGRSQSPVALLFDALLRPDTDFGGNMKSVLTWKHRKEHAIPHVVLGRNLPGGAWHSIEGSMVILSQGQWMGLPDLEVKDWMQKKRRGLRNSRATAGDIAHYYRDYVVKKGLGHNFVSGAVVTAVEWGTPDPSSCGAQDSSPLFQVSGFLTRNQAQQPFLLWARNVVLATGTFDSPARLGIPGEALPFIHHELSALEAATRVGAVTPASDPVLIIGAGLSAADAVLYARHYNIPVIHAFRRAVDDPGLVFNQLPKMLYPEYHKVHQMMREQSILSPSPYEGYRSLPRHQLLCFKEDCQAVFQDLEGVEKVFGVSLVLVLIGSHPDLSFLPGAGADFAVDPDQPLSAKRNPIDVDPFTYQSTRQEGLYAMGPLAGDNFVRFVQGGALAVASSLLRKETRKPP [S236L] |

Variants of: B2
Details: with actn1_human ACTN1, P12814
actn1_human ACTN1, P12814, sequence (P12814 whole entry): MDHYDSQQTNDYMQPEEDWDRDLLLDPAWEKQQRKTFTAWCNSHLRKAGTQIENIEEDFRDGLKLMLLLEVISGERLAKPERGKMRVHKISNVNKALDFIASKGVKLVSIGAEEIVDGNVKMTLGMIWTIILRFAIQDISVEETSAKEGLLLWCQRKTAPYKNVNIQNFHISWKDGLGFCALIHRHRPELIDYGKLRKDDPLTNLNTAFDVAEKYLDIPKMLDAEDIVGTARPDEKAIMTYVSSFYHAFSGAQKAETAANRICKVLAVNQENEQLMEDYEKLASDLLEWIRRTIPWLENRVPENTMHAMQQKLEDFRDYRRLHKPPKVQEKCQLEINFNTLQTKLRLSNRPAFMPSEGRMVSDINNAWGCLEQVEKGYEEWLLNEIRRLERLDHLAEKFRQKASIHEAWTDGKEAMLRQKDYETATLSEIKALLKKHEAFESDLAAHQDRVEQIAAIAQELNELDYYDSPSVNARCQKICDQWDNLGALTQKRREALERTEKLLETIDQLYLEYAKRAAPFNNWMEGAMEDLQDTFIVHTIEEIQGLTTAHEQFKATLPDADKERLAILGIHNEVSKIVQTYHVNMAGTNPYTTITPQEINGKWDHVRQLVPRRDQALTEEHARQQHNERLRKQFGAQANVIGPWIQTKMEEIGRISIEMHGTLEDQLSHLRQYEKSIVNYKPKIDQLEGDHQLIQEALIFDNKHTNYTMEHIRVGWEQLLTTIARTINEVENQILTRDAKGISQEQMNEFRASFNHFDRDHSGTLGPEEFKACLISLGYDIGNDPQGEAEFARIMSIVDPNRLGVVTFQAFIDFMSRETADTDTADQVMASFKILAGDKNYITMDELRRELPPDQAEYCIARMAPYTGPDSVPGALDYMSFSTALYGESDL

| effect of a mutation on the interaction | Variant |
| --- | --- |
| disrupting interaction strength | MMDLRNTPAKSLDKFIEDYLLPDTCFRMQINHAIDIICGFLKERCFRGSSYPVCVSKVVKGGSSGKGTTLRGRSDADLVVFLSPLTTFQDQLNRRGEFIQEIRRQLEACQRERAFSVKFEVQAPRWGNPRALSFVLSSLQLGEGVEFDVLPAFDALGQLTGGYKPNPQIYVKLIEECTDLQKEGEFSTCFTELQRDFLKQRPTKLKSLIRLVKHWYQNCKKKLGKLPPQYALELLTVYAWERGSMKTHFNTAQGFRTVLELVINYQQLCIYWTKYYDFKNPIIEKYLRRQLTKPRPVILDPADPTGNLGGGDPKGWRQLAQEAEAWPNYPCFKNWDGSPVSSWILLAESNSADDETDDPRRYQKYGYIGTHEYPHFSHRPSTLQAASTPQAEEDWTCTIL [L327P] |

Variants of: B3
Details: with bcas3_human BCAS3, Q9H6U6
bcas3_human BCAS3, Q9H6U6, sequence (Q9H6U6 whole entry): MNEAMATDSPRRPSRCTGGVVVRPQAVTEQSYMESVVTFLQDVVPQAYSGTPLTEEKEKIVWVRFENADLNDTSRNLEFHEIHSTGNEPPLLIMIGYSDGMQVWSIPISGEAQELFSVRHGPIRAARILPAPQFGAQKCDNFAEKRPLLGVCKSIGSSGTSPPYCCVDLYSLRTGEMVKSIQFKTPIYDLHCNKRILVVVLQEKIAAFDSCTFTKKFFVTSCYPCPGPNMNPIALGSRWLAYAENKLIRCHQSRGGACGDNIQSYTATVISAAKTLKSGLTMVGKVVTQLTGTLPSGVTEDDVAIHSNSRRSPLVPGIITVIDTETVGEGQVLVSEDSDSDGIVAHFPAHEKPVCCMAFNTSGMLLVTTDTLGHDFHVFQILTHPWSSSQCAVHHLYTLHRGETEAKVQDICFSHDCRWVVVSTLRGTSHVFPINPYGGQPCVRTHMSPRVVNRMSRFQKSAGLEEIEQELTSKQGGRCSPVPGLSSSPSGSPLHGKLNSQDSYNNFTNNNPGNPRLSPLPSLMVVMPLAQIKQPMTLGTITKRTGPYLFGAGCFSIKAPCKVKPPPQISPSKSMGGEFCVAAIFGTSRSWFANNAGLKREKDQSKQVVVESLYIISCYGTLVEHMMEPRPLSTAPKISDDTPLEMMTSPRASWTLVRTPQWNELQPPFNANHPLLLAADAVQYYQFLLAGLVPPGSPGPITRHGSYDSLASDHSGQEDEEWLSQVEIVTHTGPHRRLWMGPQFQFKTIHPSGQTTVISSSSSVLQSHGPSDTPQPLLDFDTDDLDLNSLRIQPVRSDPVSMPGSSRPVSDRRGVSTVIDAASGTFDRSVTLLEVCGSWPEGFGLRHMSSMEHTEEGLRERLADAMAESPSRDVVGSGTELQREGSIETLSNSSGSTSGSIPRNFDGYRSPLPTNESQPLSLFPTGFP

| effect of a mutation on the interaction | Variant |
| --- | --- |
| with no effect | G13R |

Variants of: B4
Details: with ub2e3_human UBE2E3, Q969T4
ub2e3_human UBE2E3, Q969T4, sequence (Q969T4 whole entry): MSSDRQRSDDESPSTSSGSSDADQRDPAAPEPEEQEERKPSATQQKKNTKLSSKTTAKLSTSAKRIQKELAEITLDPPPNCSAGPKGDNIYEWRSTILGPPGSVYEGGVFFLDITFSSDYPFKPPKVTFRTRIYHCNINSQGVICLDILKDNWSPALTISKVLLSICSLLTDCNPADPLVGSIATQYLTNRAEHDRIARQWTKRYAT

| effect of a mutation on the interaction | Variant |
| --- | --- |
| with no effect | MASKGPSASASPENSSTGGPSGSSNGAGESGGQDSTFECNICLDTAKDAVISLCGHLFCWPCLHQWLETRPNRQVCPVCKAGISRDKVIPLYGRGSTGQQDPREKTPPRPQGQRPEPENRGGFQGFGFGDGGFQMSFGIGAFPFGIFATAFNINDGRPPPAVPGTPQYVDEQFLSRLFLFVALVIMFWLLIA [A17T] |

Variants of: B5
Details: with arl16_human ARL16, Q0P5N6

| effect of a mutation on the interaction | Variant |
| --- | --- |
| with no effect | M376I |

Variants of: B6
Details: with cklf5_human CMTM5, Q96DZ9

| effect of a mutation on the interaction | Variant |
| --- | --- |
| disrupting interaction strength | A34V |

Reference: IntAct's records for PubMed 31515488
